In assay [1] the target is human Trop-2 on the surface of cells (CHO/Trop-2 cells; BxPC-3 cells; NCI-N87 cells) (human) (UniProt P09758). The assay can be described thus: FACS, BxPC cells, antibody left on the surface after 3 h at 37° C.
The target is the same in assay [2]. The assay can be described thus: FACS, BxPC cells, antibody left on the surface, control kept at 4° C. In general terms: Flow cytometry measures light scatter and fluorescence of single cells or particles in a stream.
The target is the same in assay [3]. The assay can be described thus: cell-based or functional assay.

Chain of human Trop-2 on the surface of cells (CHO/Trop-2 cells; BxPC-3 cells; NCI-N87 cells) (human) (P09758 27-323): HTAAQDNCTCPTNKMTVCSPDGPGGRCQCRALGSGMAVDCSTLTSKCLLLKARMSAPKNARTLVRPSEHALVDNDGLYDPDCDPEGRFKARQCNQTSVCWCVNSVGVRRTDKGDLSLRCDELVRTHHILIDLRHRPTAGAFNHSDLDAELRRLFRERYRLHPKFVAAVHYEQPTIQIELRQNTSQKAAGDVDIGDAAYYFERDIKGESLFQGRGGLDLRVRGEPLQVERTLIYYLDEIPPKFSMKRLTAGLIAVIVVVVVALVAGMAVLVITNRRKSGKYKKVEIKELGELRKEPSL

In assay [1], IgG1 isotype control antibody NC-IgG1 showed a Fluorescence intensity (MFI), 37° C. of 715 MFI. The same substance registered a Fluorescence intensity (MFI), 4° C. in assay [2] of 739 MFI. In assay [3], the Internalization percentage (%), 3 h, BxPC cells, FACS was 3.29%; the Internalization percentage, 1 h, BXPC-3 cells, FACS is -63%; the Internalization percentage, 1 h, NCI-N87 cells, FACS was -95%.
